This assay has as its target T1, BLyS (B-lymphocyte stimulator) (UniProt Q9Y275 134-285).
T1 construct: Endogenous BLyS in the serum of human SLE patients; The complex with atacicept was detected by sandwich ELISA
Nature of the assay: ELISA of atacicept/BLyS complex in serum of dosed SLE patients (subcutaneous, Study 1). Here is the method:
Pharmacokinetics were assessed by measuring serum levels of free atacicept (Table 2a), atacicept/BLyS complex (Table 3a), and composite atacicept (defined as free atacicept+atacicept-BLyS complex, Table 4a). Serum levels of each of these were quantified using an enzyme-linked immunosorbant assay. Serum was incubated with a biotin-conjugated mouse mAb specific for atacicept (free or total atacicept detection) (ZymoGenetics, Inc., Seattle, Wash.) or biotin-conjugated goat polyclonal antibodies specific for either BLyS or atacicept (atacicept/BLyS complex detection) (R & D Systems, Minneapolis, Minn.), immobilized on a streptavidin-coated microplate (Adaltis, Montreal, Quebec). […] In all three assays, atacicept serum levels were detected and quantified using standard […] methods, i.e., after washing tetramethylbenzidine (TMB) was added as HRP substrate (Sigma-Aldrich, St. Louis, Mo.). The reaction was halted after 20 minutes using 0.5 M sulfuric acid and the absorbance recorded at 450 nm. […] All samples were measured in triplicate. […] The lower limits of quantification (LLOQ) of the assays were 15.6 ng/mL for free atacicept, 5 U/mL for atacicept-BLyS complex (1 U/mL corresponding to 1.82 ng/mL atacicept-0.44 ng/mL BLyS in a 3:1 molar ratio), and 25 ng/mL for the composite analytes. […]
On the technique in general: ELISA stands for enzyme-linked immunosorbent assay.

T1 sequence (Q9Y275 134-285 limits assumed): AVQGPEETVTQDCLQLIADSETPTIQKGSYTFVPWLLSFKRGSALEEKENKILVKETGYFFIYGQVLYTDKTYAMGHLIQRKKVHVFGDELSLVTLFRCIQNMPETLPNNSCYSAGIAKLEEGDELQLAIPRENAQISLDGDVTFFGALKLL

B1: atacicept (Fc fusion)
chain: AMRSCPEEQYWDPLLGTCMSCKTICNHQSQRTCAAFCRSLSCRKEQGKFYDHLLRDCISCASICGQHPKQCAYFCENKLRSEPKSSDKTHTCPPCPAPEAEGAPSVFLFPPKPKDTLMISRTPEVTCVVVDVSHEDPEVKFNWYVDGVEVHNAKTKPREEQYNSTYRVVSVLTVLHQDWLNGKEYKCKVSNKALPSSIEKTISKAKGQPREPQVYTLPPSRDELTKNQVSLTCLVKGFYPSDIAVEWESNGQPENNYKTTPPVLDSDGSFFLYSKLTVDKSRWQQGNVFSCSVMHEALHNHYTQKSLSLSPGK
modifications: Fc-linked homodimer in the drug; one chain is given.
notes: also called TACI-Ig; TACI-Fc5
On to B1, for which the binding result was “binds”.

The record behind these values is patent publication US20090186040A1 (published 2009).
